# Experiment: label from the status in PepcDB records
# 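Note: failed if final PepcDB status was selected cloned or expressed and not failed if soluble or beyond.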
row,Sequence,protein production
1,MLNPVSQLSQAIRENTEHLAEKMKILFQNTGRAWEDLEARINAENEVPILKTSNKEISSILKELRRVQKQLEVINAIVDPSGSLDLLTGNRSLASSAQPGLGKGRVAAQSPPSPASAEALLPALPLRNFPQRASCGPPSLPDPTFLPDAERFLI,failed
2,MLNVIHALFFRELKTRFGKNRYLGYIWVVGEPMSVVLLVTIIGTVIREYHHQVMPEGISIFMFLISGIMPFFMFRSIVTQLMNGIGANLSLFAYKPVKPIHVFIARTLLEFCIYFVIFITVLFFAGWFFRLDVFPVHLLGVLFCIFLLICSAFALGICFAIVWHFVESLRTLLAYFSIVFYWSSGIIFPTWLTPRPLLDIFYYNPLLHIFELLRFNFFENYPLQDEYSYFYAIFWILLVLFIGLFIYYYNRQALTAAKKE,failed
3,MLPARLPFRLLSLFLRGSAPTAARHGLREPLLERRCAAASSFQHSSSLGRELPYDPVDTEGFGEGGDMQERFLFPEYILDPEPQPTREKQLQELQQQQEEEERQRQQRREERRQQNLRARSREHPVVGHPDPALPPSGVNCSGCGAELHCQDAGVPGYLPREKFLRTAEADGGLARTVCQRCWLLSHHRRALRLQVSREQYLELVSAALRRPGPSLVLYMVDLLDLPDALLPDLPALVGPKQLIVLGNKVDLLPQDAPGYRQRLRERLWEDCARAGLLLAPGHQGPQRPVKDEPQDGENPNPPNWSRTVVRDVRLISAKTGYGVEELISALQRSWRYRGDVYLVGATNAGKSTLFNTLLESDYCTAKGSEAIDRATISPWPGTTLNLLKFPICNPTPYRMFKRHQRLKKDSTQAEEDLSEQEQNQLNVLKKHGYVVGRVGRTFLYSEEQKDNIPFEFDADSLAFDMENDPVMGTHKSTKQVELTAQDVKDAHWFYDTPGITKENCILNLLTEKEVNIVLPTQSIVPRTFVLKPGMVLFLGAIGRIDFLQGNQSAWFTVVASNILPVHITSLDRADALYQKHAGHTLLQIPMGGKERMAGFPPLVAEDIMLKEGLGASEAVADIKFSSAGWVSVTPNFKDRLHLRGYTPEGTVLTVRPPLLPYIVNIKGQRIKKSVAYKTKKPPSLMYNVRKKKGKINV,failed
4,MLPGLKYIDRIGVDDVLVWLRKGIVWIVLAIVLCVGGALTYASMTPPRYKAYTDIVVNPSNLNVVNDGVFSPNQQRDTQILEVESKLRTITSRNVLARVVDELKLDQDPEFVSPPPLARLKAMFSSKPDDGDNRVGALRSLGDRVTAERDPRSFVVTLSVWTNDAEKSVAVSKAIVKAFESELFQTNSDSSQRVVDDLKKRLEEMRENVTIAEKRVADFRRENGLQENNGQLVSNLASGELNAQVLATQQRLIQEESRLKQMEAAIAQNRTQSDAIFDSQTMNTIRAQYSTLQQQIGAMTLTYGARHPRLATAGAERAMLERGMADEARRILQAAKINVAEARSSLDALRLKAVAERANVFTDNDAQVRLRDLDRDARSAAAIYETYLTRSRQLAEQQSIDSTNVRVISQPVAPNSRSWPPGKLTFLIAGGMGGLFLGLAIAVALGLWGYLRRDDHAEAAARYA,failed
5,MLPHYKQQAVIDSGLAAVGFRPENQRIYPNGSLAAHILGAVDIDNFGIAGIEKWIDANWLADLRGAGLALKGRDLQPVELSIDLRVQYAMEQELGKAVKKFGAAAGAGLLLDVTNGEILALASYPAFDPNNPVDAFKPDRINRVTAGVFEMGSTFKALTTAMALESGRFDLESVVDASRPLSFGRQRIHDYRGKYRPLTVPEAFIHSSNIVMAKMAMTLGPEALRTFLGRFGVLSQLATELPESAAPLRPSSWSEVTTATVSFGHGIAVTPLQASMAVAALANGGRLIRPTFIKDSPVSERTIAESLLSANTSEAIRHLLRLNAAVGSATKADVPGYVIGGKTGTAEKVVQGRYSKVLNVTSFMGIVPADNPRYLLLTLLDEPRGLAETYGNRTSGWNAVPLGGALLHRILPMLLKPVFPSPSSAEAVPVATGEPSVDDSSSD,failed
6,MLPIAPCARQAVHRQCGGMQNSAAARKLHAVLPRTLDTARIARRSSMFLRRNGLSLCLLALTIFFIGCQVYAGLHAYNDELREQGQPTLLLSAYLHSPHFMSALFENWESEFLQMGMYVLLTVKLRQVGSAESRPLDPTEETVEIKSGPTPWPVRAGGVWRRLYDHSLAIAFAALFLMSFALHLVGSWRLEVTERAQKGLPPITVLEHFTSASFWFESMQNWQSEFLAVFSLVVLTIWLRQKDSPQSKPVEAPHSQTGG,failed
7,MLPIWFLIVIILKSVEFVITSFFLRDISKEMIFFSDLLGRIIVIIFYVLPIATYISVMFSQFLYLFIIHIFLYIICFMAFVSSALRIKRCIH,failed
8,MLPVSTSVQRSTRQQKITYLYNRNEQSNKKAVTMKTTTTETSIPEEKTTSARIQAYSKSQLAALYLPHIQPASARRTLRSWIAKNTELQAALARSGYTGKAILLTPAQVGLFFRFLGEP,failed

# Reference: a protein production outcome set (Wang et al. 2014)
